From paper PMC5035961

Columns and labels:
[1] = biological target: Influenza A nucleoprotein (strain A/WSN/1933, H1N1) (influenza A virus, H1N1 strain A/WSN/1933) (UniProt P15682); test: negative stain electron microscopy
[2] = biological target: Influenza A nucleoprotein (strain A/WSN/1933, H1N1) (influenza A virus, H1N1 strain A/WSN/1933) (UniProt P15682); test: SEC-MALLS

Substance: Influenza A nucleoprotein (strain A/WSN/1933, H1N1) (from UniProt P15682 1-498) (natural protein)
- stoichiometry N [1]: 3
- stoichiometry N [2]: 3
